Experimental data reported in paper PMC12703665, “A Trifunctional, Rare-Earth Theranostic Chelator Platform to Enable Diagnostic Nuclear Imaging, Surgical Resection, and Radiotherapy” (Journal of the American Chemical Society, 2025).

Assay: LogD7.4 lipophilicity measurements (1-octanol/DPBS)
Type: physicochemical
Details: 86Y-labeled tracer, 1-octanol/DPBS pH 7.4
Experimental: Figure S49. Chromatographic analysis of [177Lu]Lu-PSMA-617 and its corresponding non-radioactive reference complex. Absorbance of non-radioactive samples was monitored at 254 nm.
[161Tb]TbCl3 (9.34 µL, 4.0 mCi) and PSMA-617 (12.2 µL, 9.80 µM) were dissolved in a mixture of NaOAc buffer (20.0 µL, 1 M, pH 5.5), DMSO (20.0 µL) and water (38.4 µL). The resulting mixture was vortexed and heated at 80 °C for 20 minutes. Quantitative labeling was confirmed via radio-HPLC (Method D, Rt = 7.73 min – Absorbance monitored at 254 nm).
Figure S50. Chromatographic analysis of [161Tb]Tb-PSMA-617 and its corresponding non-radioactive […]
4.3 LogD7.4 Lipophilicity Measurements pepa-pic2, mepa-pic2, pepa2-pic and pepa2-pic-PSMA were radiolabeled with [86Y]YCl3 and formulated in DPBS 1X pH 7.4 at a concentration of 25-29 µCi/mL. […] Samples were centrifuged for 5 min at 5000 rpm to separate (also on this page, place not known: 02468101214161820 Time (min) Normalized Absorbance (a.u) Normalized Counts (cps) 02468101214161820 Time (min) Normalized Absorbance (a.u) Normalized Counts (cps)) […]
both layers. […] LogD7.4 values calculated according […]
Female BALB/c mice were purchased from Jackson Laboratory. Biodistribution profiles of Y-86 labeled mepa-pic2, pepa-pic2 and […] were first evaluated in healthy naïve mice. […]
Table S1. […] Values expressed as % ID/g. Error expressed as ± 1 SD for n = 4. […]

## COCCOCCOCCOc1ccc(C#Cc2cc(CN3CCN(Cc4cccc(C(=O)O)n4)CCN(Cc4cc(SC[C@H](N)C(=O)NCCCCCC(=O)NCCCC[C@H](NC(=O)N[C@@H](CCC(=O)O)C(=O)O)C(=O)O)cc(C(=O)O)n4)CC3)nc(C(=O)O)c2)cc1 [[86Y]Y-pepa-pic2-C-Hex-KuE, metal not drawn]
  logD7.4: −2.98
